The labels stand for the following.
T1: human FcγRIIb (human, UniProt P31994 43-217)
T1 construct: also called FcγIIB
T1 sequence: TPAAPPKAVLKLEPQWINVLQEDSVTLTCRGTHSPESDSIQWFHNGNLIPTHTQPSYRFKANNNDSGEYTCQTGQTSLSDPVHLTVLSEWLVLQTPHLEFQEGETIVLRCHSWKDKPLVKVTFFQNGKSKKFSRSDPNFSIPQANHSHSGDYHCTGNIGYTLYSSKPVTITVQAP

T2: human FcγRIIa type H (allotype H131) (human, UniProt P12318 36-217)
T2 construct: also called FcγRIIaH; FcγRIIa(H)
T2 sequence: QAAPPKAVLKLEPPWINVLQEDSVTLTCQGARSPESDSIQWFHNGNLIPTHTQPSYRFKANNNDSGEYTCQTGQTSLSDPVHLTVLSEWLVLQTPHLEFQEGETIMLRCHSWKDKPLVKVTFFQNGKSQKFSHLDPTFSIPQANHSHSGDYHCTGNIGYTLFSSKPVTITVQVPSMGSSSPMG

T3: human FcγRIIb (human, UniProt P31994 43-217, limits assumed)
T3 construct: also called FcγIIB; hFcgRIIb
T3 sequence: T1 sequence

B1: antibody containing VH3-IgG4-F890 and L(WT)-CK (antibody)
heavy: QVQLQESGPGLVKPSETLSLTCAVSGHSISHDHAWSWVRQPPGEGLEWIGFISYSGITNYNPSLQGRVTISRDNSKNTLYLQMNSLRAEDTAVYYCARSLARTTAMDYWGEGTLVTVSSASTKGPSVFPLAPCSRSTSESTAALGCLVKDYFPEPVTVSWNSGALTSGVHTFPAVLQSSGLYSLSSVVTVPSSSLGTKTYTCNVDHKPSNTKVDKRVESKYGPPCPPCPAPEFLGGPSVFLFPPKPKDTLYISRTPEVTCVVVDVSQEDPEVQFNWYVDGVEVHNAKTKPREEQFNSTYRVVSVLTVLHQDWLNGKEYKCKVSNKGLPSSIEKTISKAKGQPREPQVYTLPPSQEEMTKNQVSLTCLVKGFYPSDIAVEWESNGQPENNYKTTPPVLDSDGSFFLYSRLTVDKSRWQEGNVFSCSVMHEALHYHVTQKSLSLSL
light: not shown
notes: VH3-IgG4 with M252Y/N434Y/Y436V (EU numbering)
B2: antibody containing VH3-IgG4-F939 and L(WT)-CK (antibody)
heavy: B1 heavy with L234R, S238K
light: not shown
notes: VH3-IgG4 with L235R/S239K/M252Y/N434Y/Y436V (EU numbering)
B3: antibody containing VH3-IgG2-F890 and L(WT)-CK (antibody)
heavy: QVQLQESGPGLVKPSETLSLTCAVSGHSISHDHAWSWVRQPPGEGLEWIGFISYSGITNYNPSLQGRVTISRDNSKNTLYLQMNSLRAEDTAVYYCARSLARTTAMDYWGEGTLVTVSSASTKGPSVFPLAPCSRSTSESTAALGCLVKDYFPEPVTVSWNSGALTSGVHTFPAVLQSSGLYSLSSVVTVPSSNFGTQTYTCNVDHKPSNTKVDKTVERKCCVECPPCPAPPVAGPSVFLFPPKPKDTLYISRTPEVTCVVVDVSHEDPEVQFNWYVDGVEVHNAKTKPREEQFNSTFRVVSVLTVVHQDWLNGKEYKCKVSNKGLPAPIEKTISKTKGQPREPQVYTLPPSREEMTKNQVSLTCLVKGFYPSDIAVEWESNGQPENNYKTTPPMLDSDGSFFLYSKLTVDKSRWQQGNVFSCSVMHEALHYHVTQKSLSLSP
light: not shown
notes: VH3-IgG2 with M252Y/N434Y/Y436V (EU numbering)
B4: antibody containing VH3-IgG2 and L(WT)-CK (antibody)
heavy: B3 heavy with Y250M, Y432N, V434Y
light: not shown
B5: antibody containing VH3-IgG2-F939 and L(WT)-CK (antibody)
heavy: B3 heavy with A234R, S237K
light: not shown
notes: VH3-IgG2 with A235R/S239K/M252Y/N434Y/Y436V (EU numbering)
B6: IL6R-BP194/IL6R-L (antibody, human IgG1)
heavy: QVQLQESGPGLVKPSETLSLTCAVSGHSISHDHAWSWVRQPPGEGLEWIGFISYSGITNYNPSLQGRVTISRDNSKNTLYLQMNSLRAEDTAVYYCARSLARTTAMDYWGEGTLVTVSSASTKGPSVFPLAPSSKSTSGGTAALGCLVKDYFPEPVTVSWNSGALTSGVHTFPAVLQSSGLYSLSSVVTVPSSSLGTQTYICNVNHKPSNTKVDKKVEPKSCDKTHTCPPCPAPDYLGDDSVFLFPPKPKDTLMISRTPEVTCVVVDVSDEDGEVKFNWYVDGVEVHNAKTKPREEQYNSTYRVVSVLTVLHQDWLNGKEYKCKVSNAALPKPIEKTISKAKGQPREPQVYTLPPSRDELTKNQVSLTCLVKGFYPSDIAVEWESNGQPENNYKTTPPVLDSDGSFFLYSKLTVDKSRWQQGNVFSCSVMHEALHNHYTQESLSLSP
light: DIQMTQSPSSLSASVGDRVTITCRASQDISSYLNWYQQKPGKAPKLLIYYTSRLHSGVPSRFSGSGSGTDFTFTISSLQPEDIATYYCQQGNTLPYTFGQGTKVEIK
notes: Anti-human IL-6 receptor human IgG1 variant; copies: 2 + 2
B7: IL6R-BP202/IL6R-L (antibody, human IgG1)
heavy: B6 heavy with D235E, Y236L, D270H, K332R
light: B6 light
notes: as for B6
B8: IL6R-BP189/IL6R-L (antibody, human IgG1)
heavy: B6 heavy with D235E, Y236L
light: B6 light
notes: as for B6
B9: IL6R-BP184/IL6R-L (antibody, human IgG1)
heavy: B6 heavy with Y236L, D239G, D270H, A328K
light: B6 light
notes: as for B6
B10: IL6R-BP201/IL6R-L (antibody, human IgG1)
heavy: B6 heavy with Y236L, D270H, A328K, K332R
light: B6 light
notes: as for B6
B11: antibody with VH3-IgG1-F821 heavy chain and L(WT)-CK light chain (antibody)
heavy: QVQLQESGPGLVKPSETLSLTCAVSGHSISHDHAWSWVRQPPGEGLEWIGFISYSGITNYNPSLQGRVTISRDNSKNTLYLQMNSLRAEDTAVYYCARSLARTTAMDYWGEGTLVTVSSASTKGPSVFPLAPSSKSTSGGTAALGCLVKDYFPEPVTVSWNSGALTSGVHTFPAVLQSSGLYSLSSVVTVPSSSLGTQTYICNVNHKPSNTKVDKKVEPKSCDKTHTCPPCPAPELRGGPKVFLFPPKPKDTLYISRTPEVTCVVVDVSHEDPEVKFNWYVDGVEVHNAKTKPREEQYNSTYRVVSVLTVLHQDWLNGKEYKCKVSNKALPAPIEKTISKAKGQPREPQVYTLPPSRDELTKNQVSLTCLVKGFYPSDIAVEWESNGQPENNYKTTPPVLDSDGSFFLYSKLTVDKSRWQQGNVFSCSVMHEALHYHYTQKSLSLSP
light: not shown
notes: copies: 2 + 2
B12: antibody with VH3-IgG1-F1009 heavy chain and L(WT)-CK light chain (antibody)
heavy: B11 heavy with T252V, T309Q, V310P, Q313A, Y438V
light: not shown
notes: copies: 2 + 2
B13: antibody with VH3-IgG1-F939 heavy chain and L(WT)-CK light chain (antibody)
heavy: B11 heavy with Y438V
light: not shown
notes: copies: 2 + 2
B14: antibody with VH3-IgG1-F890 heavy chain and L(WT)-CK light chain (antibody)
heavy: B11 heavy with R237L, K241S, Y438V
light: not shown
notes: copies: 2 + 2
B15: F1269 (antibody, name in EU numbering)
heavy: B11 heavy with H435D, Y438V, Q440K, S442D
light: not shown
notes: copies: 2 + 2
B16: F1213 (antibody, human IgG1, kappa, name in EU numbering)
heavy: B11 heavy with R237L, K241S, L253N, Y438V
light: not shown
notes: copies: 2 + 2
B17: F1270 (antibody, name in EU numbering)
heavy: B11 heavy with S256A, Y438V, Q440K, S442D
light: not shown
notes: copies: 2 + 2
B18: F1272 (antibody, name in EU numbering)
heavy: B11 heavy with S256A, H435D, Y438V, Q440K, S442D
light: not shown
notes: copies: 2 + 2
B19: F1254 (antibody, name in EU numbering)
heavy: B11 heavy with T309Q, Y438V, Q440R, S442E
light: not shown
notes: copies: 2 + 2
B20: IL6R-BP133/IL6R-L (antibody, human IgG1)
heavy: B6 heavy with D239G, D270H, G273P, A328K
light: B6 light
notes: copies: 2 + 2
B21: antibody with mPM1H-mIgG1-mF14 heavy chain (antibody)
heavy: DVQLQESGPVLVKPSQSLSLTCTVTGYSITSDHAWSWIRQFPGNKLEWMGYISYSGITTYNPSLKSRISITRDTSKNQFFLQLNSVTTGDTSTYYCARSLARTTAMDYWGQGTSVTVSSAKTTPPSVYPLAPGSAAQTNSMVTLGCLVKGYFPEPVTVTWNSGSLSSGVHTFPAVLQSDLYTLSSSVTVPSSTWPSETVTCNVAHPASSTKVDKKIVPRDCGCKPCICTVPEVSSVFIFPPKPKDVLYITLEPKVTCVVVDISKDDPEVQFSWFVDDVEVHTAQTQPREEQFNSTFRSVSELPIMHQDWLNGKEFKCRVNSAAFPAPIEKTISKTKGRPKAPQVYTIPPPKEQMAKDKVSLTCMITDFFPEDITVEWQWNGQPAENYKNTQPIMDTDGSYFVYSKLNVQKSNWEAGNTFTCSVLHEGLKNHHTEKSLSHSPGK
light: not shown
notes: also called mPM1-mIgG1-mF14; copies: 2 + 2
B22: antibody with mPM1H-mIgG1-mF39 heavy chain (antibody)
heavy: B21 heavy with P231K, S235K
light: not shown
notes: also called mPM1-mIgG1-mF39; copies: 2 + 2
B23: antibody with mPM1H-mIgG1-mF40 heavy chain (antibody)
heavy: B21 heavy with P231K, S235K, K429H, N430W
light: not shown
notes: also called mPM1-mIgG1-mF40; copies: 2 + 2
B24: antibody with mPM1H-mIgG1-mF38 heavy chain (antibody)
heavy: B21 heavy with K429H, N430W
light: not shown
notes: also called mPM1-mIgG1-mF38; copies: 2 + 2

Data on 24 molecules can be found in US20140105889A1 (published 2014).

Changes are numbered by the printed parent chain. Numbers in names are those of the source.

T7 sequence (chain, as listed by the source limits assumed, chain 1 of 2): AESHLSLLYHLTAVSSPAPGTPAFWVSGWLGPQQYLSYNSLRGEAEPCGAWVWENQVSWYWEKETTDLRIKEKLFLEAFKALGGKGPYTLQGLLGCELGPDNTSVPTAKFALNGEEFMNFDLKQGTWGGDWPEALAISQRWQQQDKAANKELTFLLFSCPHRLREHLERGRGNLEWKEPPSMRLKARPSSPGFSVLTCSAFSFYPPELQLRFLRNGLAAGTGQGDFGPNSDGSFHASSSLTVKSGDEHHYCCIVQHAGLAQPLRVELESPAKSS
T7 sequence (P61769 21-119 limits assumed, chain 2 of 2): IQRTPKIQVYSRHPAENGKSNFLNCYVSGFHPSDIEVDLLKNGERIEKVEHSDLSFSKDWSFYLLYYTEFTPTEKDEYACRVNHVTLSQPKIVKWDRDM
T5 sequence (A0A0B4J1G0 21-203): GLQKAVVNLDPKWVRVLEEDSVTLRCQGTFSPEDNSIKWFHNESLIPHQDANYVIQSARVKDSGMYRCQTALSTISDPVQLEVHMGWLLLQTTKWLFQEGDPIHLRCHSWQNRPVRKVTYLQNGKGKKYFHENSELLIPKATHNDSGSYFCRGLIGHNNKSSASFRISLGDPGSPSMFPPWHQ

For one experiment, the target named is T4, human FcγRIIIa(F) (human, UniProt P08637 17-208, limits assumed).
T4 construct: also called FcgRIIIaF; hFcgRIIIa(F)
T4 sequence (P08637 other isoform, or with tags, fused parts or gaps limits assumed): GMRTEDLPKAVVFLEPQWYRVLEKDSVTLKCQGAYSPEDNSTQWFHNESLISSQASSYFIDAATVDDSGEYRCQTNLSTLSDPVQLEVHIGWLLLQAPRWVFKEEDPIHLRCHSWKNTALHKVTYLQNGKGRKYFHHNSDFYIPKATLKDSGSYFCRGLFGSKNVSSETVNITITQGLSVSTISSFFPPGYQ
In words: SPR (Biacore), antibody captured by Protein L, FcγR as analyte, pH 7.4, 25°C; amount normalised to captured antibody. On the technique in general: In SPR one partner is held on a chip, and binding of the other changes the refractive index at the surface.
Method: Binding activity between the antibodies and human FcγRIa, FcγRIIa(H), FcγRIIa(R), FcγRIIb and FcγRIIIa(F) (hereinafter referred to as human FcγRs) was evaluated using the Biacore T100 or T200 (GE Healthcare). The antibodies being tested were captured by Protein L (ACTIGEN) that was immobilized in suitable amounts on the CM4 Sensor Chip (GE Healthcare) by amine coupling. Next, the diluted human FcγRs and a running buffer used as a blank were injected to allow interaction with the antibodies captured on the sensor chip. A buffer consisting of 20 mmol/L ACES, 150 mmol/L NaCl and 0.05% (w/v) Tween 20 (pH 7.4) was used for the running buffer, and this buffer was also used to dilute the human FcγRs. 10 mmol/L glycine-HCl (pH 1.5) was used to regenerate the sensor chip. All measurements were carried out at 25° C.
With B1, the “BINDING AMOUNT (RU)” value turned out to be 3.4 RU.
Consider B2, for which the “BINDING AMOUNT (RU)” value was -1.7 RU.
As for B3, the “BINDING AMOUNT (RU)” value amounted to 9.3 RU.
Regarding B4, the “BINDING AMOUNT (RU)” value was 16.3 RU.
Turning to B5, the “BINDING AMOUNT (RU)” value was determined as 0.6 RU.

A further experiment concerns the target T1, human FcγRIIb. Nature of the experiment: SPR (Biacore); KD of parent IL6R-B3/IL6R-L for FcγRIIb divided by KD of the variant for FcγRIIb.
From the text: (§1) Furthermore, KD(IIaR)/KD(IIb) and KD(IIaH)/KD(IIb) in the table respectively represent the value obtained by dividing the KD value of each variant for FcγRIIaR by the KD value of each variant for FcγRIIb, and the value obtained by dividing the KD value of each variant for FcγRIIaH by the KD value of each variant for FcγRIIb.
Consider B6, for which the “KD(IIb) of the parent polypeptide/KD(IIb) of the altered polypeptide” value (shortened to “KD(IIb)”) was 59.4.
Turning to B7, the “KD(IIb)” value is 48.4.
Take B8: the “KD(IIb)” value was 41.8.
Take B9: the “KD(IIb)” value came out at 24.5.
Consider B10, for which the “KD(IIb)” value turned out to be 77.1.

Another experiment concerns the target T5, mouse FcγRIV (mouse).
T5 construct: Bought soluble receptor; also called mFcgRIV; mFcgR IV
Nature of the experiment: SPR (Biacore), antibody captured on Protein L, mouse FcγR as analyte, pH 7.4, 25 C.
Method: (§2) Binding activity between the antibodies and mouse FcγRI, FcγRII, FcγRIII and FcγRIV (R&D Systems, Sin θ Biological) (hereinafter referred to as mouse FcγRs) was evaluated using the Biacore T100 or T200 (GE Healthcare). The antibodies being tested were captured by Protein L (ACTIGEN) that was immobilized in suitable amounts on the CM4 Sensor Chip (GE Healthcare) by amine coupling. Next, the diluted mouse FcγRs and a running buffer used as a blank were injected to allow interaction with the antibody captured on the sensor chip. A buffer consisting of 20 mmol/L ACES, 150 mmol/L NaCl and 0.05% (w/v) Tween 20 (pH 7.4) was used for the running buffer, and this buffer was also used to dilute the mouse FcγRs. 10 mmol/L glycine-HCl (pH 1.5) was used to regenerate the sensor chip. All measurements were carried out at 25° C.
For B11, the “BINDING AMOUNT (RU)” value was -3.8 RU.
As to B12, the “BINDING AMOUNT (RU)” value worked out at 7.2 RU.
Consider B13, for which the “BINDING AMOUNT (RU)” value was -7.3 RU.
On to B14, for which the “BINDING AMOUNT (RU)” value came out at 230 RU.

For another experiment, the target named is T2, human FcγRIIa type H (allotype H131). In words: SPR (Biacore), antibody captured on the chip, FcγR as analyte.
For orientation: Kd means the concentration at which binding is half-saturated. Read a low Kd as a tighter complex. Molecule B6 displayed a Kd of 6500 nM.
As to B7, the affinity, expressed as Kd, was 9200 nM.
On the same count and under the same terms, then B8, with 2100 nM; and B9, with 3000 nM; and B10, with 6900 nM.

Another experiment deals with T6, human FcγRIIIa type V (allotype V158) (human, UniProt P08637 17-208, limits assumed).
T6 construct: the assay used allotype V158; also called FcγRIIIaV; FcγRIIIa(V)
T6 sequence (P08637 other isoform, or with tags, fused parts or gaps limits assumed): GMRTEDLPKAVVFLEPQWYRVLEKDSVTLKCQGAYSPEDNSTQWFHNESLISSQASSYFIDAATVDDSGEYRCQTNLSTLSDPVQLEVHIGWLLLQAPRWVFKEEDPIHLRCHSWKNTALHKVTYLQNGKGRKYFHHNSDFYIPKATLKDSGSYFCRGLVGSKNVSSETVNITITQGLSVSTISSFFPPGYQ
The experiment is described as above.
In turn, B6 showed an equilibrium dissociation constant (Kd) of 27000 nM.
B8 displayed a dissociation constant (Kd) of 49000 nM.
Same read-out and setting: the figure for B9 is 66000 nM.

A further experiment has as its target T7, human FcRn (human).
T7 construct: also called hFcRn; soluble human FcRn complexed with β2-microglobulin
Nature of the experiment: SPR (Biacore), pH 7.0, 25 C, antibody captured by Protein L, human FcRn as analyte.
Method: A kinetic analysis of binding between human FcRn and the aforementioned antibodies was carried out using the Biacore T100 or T200 (GE Healthcare). The antibodies being tested were captured on the CM4 Sensor Chip (GE Healthcare) on which a suitable amount of Protein L (ACTIGEN) was suitably immobilized by amine coupling. Next, diluted human FcRn and a running buffer used as a blank were injected to allow the human FcRn to interact with the antibody captured on the sensor chip. A buffer consisting of 50 mmol/L sodium phosphate, 150 mmol/L NaCl and 0.05% (w/v) Tween 20 (pH 7.0 or pH 7.4) was used for the running buffer, and each buffer was also used to dilute the human FcRn. 10 mmol/L glycine-HCl (pH 1.5) was used to regenerate the sensor chip. All measurements of binding were carried out at 25° C. The KD(M) of each antibody to human FcRn was calculated based on kinetics parameters, i.e., the association rate constant ka (1/Ms) and the dissociation rate constant kd (1/s) calculated from a sensorgram obtained by the measurement. The Biacore T100 or T200 Evaluation Software (GE Healthcare) was used to calculate each parameter.
For the molecule B15, binding was put at a Kd of 169 nM.
Take B16: the Kd worked out at 633 nM.
Same read-out and setting: the figure for B17 is 118 nM; for B18 it is 171 nM; for B19 it is 64.2 nM.

Another experiment concerns the target T3, human FcγRIIb. In words: SPR KD for FcγRIIb of parent IL6R-B3/IL6R-L divided by that of this variant.
From the text: as §1
Regarding B20, the “KD(IIb)” value was determined as 5.5.

The target in another experiment is T5, mouse FcγRIV. Nature of the experiment: SPR (Biacore), antibody captured on Protein L, mouse FcγR as analyte, pH 7.4, 25 C. This is another data set of the same source.
Method: as §2
Turning to B21, the “BINDING AMOUNT (RU)” value is -8 RU.
As to B22, the “BINDING AMOUNT (RU)” value was -3.8 RU.
In the case of B23, the “BINDING AMOUNT (RU)” value was -8.9 RU.
The same measure, in the same setting: then B24, with -4.1 RU.
